Consider two molecules from patent publication US20210338833A1 (MIT, published 2021).

Bridge positions count the residues as written; N and C are the ends. Ends that are not written are not given here. * marks the point of attachment. Biotin = O=C1N[C@H]2[C@H](CS[C@H]2CCCCC(=O)*)N1

T1: biotinylated F12 derivative GGGGSGGGGSGGGGSASRICPWNCKEL (not fully specified; biotinylated on the N-terminus)
T1 construct: Free peptide loaded on a streptavidin coated plate for ELISA
T1 peptide: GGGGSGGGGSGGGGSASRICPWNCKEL

T2: biotinylated F12 derivative SASRICPWNCKEL (not fully specified (bridges); cysteine pairing not given here)
T2 construct: Free peptide loaded on a streptavidin coated plate for ELISA
T2 peptide: Biotin-SASRICPWNCKEL

T3: biotinylated F12 derivative GGGSASRICPWNCKEL (not fully specified (bridges); cysteine pairing not given here)
T3 construct: Free peptide loaded on a streptavidin coated plate for ELISA
T3 peptide: Biotin-GGGSASRICPWNCKEL

T4: biotinylated F12 mimotope RICPWNCKEL (no flanking residues) (not fully specified (bridges); cysteine pairing not given here)
T4 construct: Free peptide loaded on a streptavidin coated plate for ELISA; also called Bio-F12; F12 without flanking residues
T4 peptide: Biotin-RICPWNCKEL

T5: biotinylated F12 derivative GSGGGGSGGGGSASRICPWNCKEL (not fully specified; biotinylated on the N-terminus)
T5 construct: Free peptide loaded on a streptavidin coated plate for ELISA
T5 peptide: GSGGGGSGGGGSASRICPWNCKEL

T6: biotinylated F12 derivative GGSGGGGSASRICPWNCKEL (not fully specified; biotinylated on the N-terminus)
T6 construct: Free peptide loaded on a streptavidin coated plate for ELISA
T6 peptide: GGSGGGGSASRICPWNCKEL

T7: FMC63 Mimotope (E6) RLCPWSCVPI
T7 peptide: RLCPWSCVPI

T8: FMC63 Mimotope (F8) RLCPWDCREL
T8 peptide: RLCPWDCREL

T9: FMC63 Mimotope (B7) RICPWSCMVV
T9 peptide: RICPWSCMVV

T10: FMC63 Mimotope (C5) RMCPWSCYEL
T10 peptide: RMCPWSCYEL

T11: FMC63 Mimotope (F12) RICPWNCKEL
T11 construct: also called F12 mimotope
T11 peptide: RICPWNCKEL

T12: FMC63 Mimotope (C7) RLCPWACQEQ
T12 peptide: RLCPWACQEQ

T13: FMC63 Mimotope (H1) RVCPWSCMPI
T13 construct: Not the 1D3 mimotope that is also called H1
T13 peptide: RVCPWSCMPI

T14: FMC63 Mimotope (H8) RICPWACVEL
T14 peptide: RICPWACVEL

T15: FMC63 Mimotope (G11) RLCPWNCREL
T15 peptide: RLCPWNCREL

T16: FMC63 Mimotope (H11) RICPWSCREL
T16 peptide: RICPWSCREL

T17: FMC63 Mimotope Mutant RACPWSCREL
T17 construct: also called G9 X1 (Leu 2) to Ala
T17 peptide: RACPWSCREL

T18: FMC63 Mimotope Mutant RLCPWSCREA
T18 construct: also called G9 X5 (Leu 10) to Ala
T18 peptide: RLCPWSCREA

T19: FMC63 Mimotope Mutant RLCPWSCAEL
T19 construct: also called G9 X3 (Arg 8) to Ala
T19 peptide: RLCPWSCAEL

T20: FMC63 Mimotope Mutant RLCPWSCRAL
T20 construct: also called G9 X4 (Glu 9) to Ala
T20 peptide: RLCPWSCRAL

T21: FMC63 Mimotope Mutant RLCPWACREL
T21 construct: also called G9 X2 (Ser 6) to Ala
T21 peptide: RLCPWACREL

T22: FMC63 Mimotope (G9) RLCPWSCREL
T22 construct: Parent of the alanine scan
T22 peptide: RLCPWSCREL

T23: FMC63 Mimotope Mutant RLCPWSAACREL
T23 construct: also called G9 with two alanines inserted between the cysteines
T23 peptide: RLCPWSAACREL

T24: FMC63 Mimotope Mutant RLCPWSACREL
T24 construct: also called G9 with one alanine inserted between the cysteines
T24 peptide: RLCPWSACREL

B1: FMC63 IgG (antibody, V domains shown)
VH: EVKLQESGPGLVAPSQSLSVTCTVSGVSLPDYGVSWIRQPPRKGLEWLGVIWGSETTYYNSALKSRLTIIKDNSKSQVFLKMNSLQTDDTAIYYCAKHYYYGGSYAMDYWGQGTSVTVSS
VL: DIQMTQTTSSLSASLGDRVTISCRASQDISKYLNWYQQKPDGTVKLLIYHTSRLHSGVPSRFSGSGSGTDYSLTISNLEQEDIATYFCQQGNTLPYTFGGGTKLEIT
notes: Murine monoclonal antibody to human CD19; also called FMC63 IgG antibody; biotinylated FMC63 IgG

The target of the assay “FMC63 IgG” is B1. The assay can be described thus: ELISA with FMC63 IgG; ELISA with FMC63 IgG (FIG. 7); micromolar range. On the technique in general: ELISA stands for enzyme-linked immunosorbent assay.
Assay [1] has as its target T1, biotinylated F12 derivative …. Kind of assay: ELISA, biotinylated peptide on a streptavidin plate, OD(450nm) against the FMC63 IgG concentration (nM).
For assay [2], the target named is T2, biotinylated F12 derivative …. Described as above.
Assay [3] addresses T3, biotinylated F12 derivative …. The description is as above.
The target of assay [4] is T4, biotinylated F12 mimotope RICPWNCKEL …. The description is as above.
For assay [5], the target named is T5, biotinylated F12 derivative …. Described as above.
The target of assay [6] is T6, biotinylated F12 derivative …. The assay is described as above.
Assay [7] addresses T7, FMC63 Mimotope (E6) RLCPWSCVPI
The assay can be described thus: flow cytometry of yeast clones titrated with biotinylated FMC63 IgG, MFI (geometric mean); axis without unit, nM by the legend paragraph 211.

For assay [8], the target named is T8, FMC63 Mimotope (F8) RLCPWDCREL
The description is as above.

Assay [9] addresses T9, FMC63 Mimotope (B7) RICPWSCMVV
The description is as above.

The target in assay [10] is T10, FMC63 Mimotope (C5) RMCPWSCYEL
The assay is described as above.

Assay [11] has as its target T11, FMC63 Mimotope (F12) RICPWNCKEL
The description is as above.

In assay [12] the target is T12, FMC63 Mimotope (C7) RLCPWACQEQ
The assay is described as above.

Assay [13] concerns the target T13, FMC63 Mimotope (H1) RVCPWSCMPI
Described as above.

Assay [14] deals with T14, FMC63 Mimotope (H8) RICPWACVEL
The description is as above.

The target in assay [15] is T15, FMC63 Mimotope (G11) RLCPWNCREL
Described as above.

Assay [16] concerns the target T16, FMC63 Mimotope (H11) RICPWSCREL
The assay is described as above.

The target of assay [17] is T17, FMC63 Mimotope Mutant RACPWSCREL
Kind of assay: flow cytometry of yeast clones stained with FMC63 IgG (5 µM by paragraph 811); stacked histograms, no unstained control drawn. As for the experimental part:
(§1) Specifically, a representative mimotope, […] […] To generate mutations, two complementary oligos with the codon replaced at the desired site were denatured at 95° C. and annealed by slow cooling to 25° C. (decreasing by 0.5° C./second). The annealed oligos were treated with T4 PNK (T4 Polynucleotide Kinase) to add a terminal phosphate, and then ligated into digested pCT-CON2 vector. Positive clones having the correct oligo inserted were tested and transformed into competent EBY100 yeast cells.
Background: Flow cytometry measures light scatter and fluorescence of single cells or particles in a stream.

The target in assay [18] is T18, FMC63 Mimotope Mutant RLCPWSCREA
The description is as above. How it is done:
as §1

Assay [19] deals with T19, FMC63 Mimotope Mutant RLCPWSCAEL
The description is as above. How it is done:
as §1

Assay [20] addresses T20, FMC63 Mimotope Mutant RLCPWSCRAL
Described as above. How it is done: as §1

The target in assay [21] is T21, FMC63 Mimotope Mutant RLCPWACREL
The description is as above. How it is done: as §1

Assay [22] has as its target T22, FMC63 Mimotope (G9) RLCPWSCREL
The assay is described as above. As for the experimental part:
as §1

Assay [23] has as its target T23, FMC63 Mimotope Mutant RLCPWSAACREL
Kind of assay: flow cytometry of yeast clones stained with FMC63 IgG; stacked histograms, no unstained control drawn. As for the experimental part: as §1

Assay [24] addresses T24, FMC63 Mimotope Mutant RLCPWSACREL
The assay is described as above. As for the experimental part:
as §1

As a reminder, the Kd is a measure of binding affinity in units of concentration. The low end stands for higher affinity, the high end for lower affinity. Turning to RHCPWNCSLL (disulfide 3-7 (inferred), Aga2p-HA-(G4S)3-AS-peptide, cf) [FMC63 Mimotope (A1) RHCPWNCSLL], the dissociation constant (Kd) with FMC63 IgG is roughly 1400 nM.
As for B1, the binding result in [1], in assay [2], in assay [3], in [4], in [5] and in [6] was “binds” in each case. Further, the binding result in assay [7], in [8], in assay [9], in assay [10], in assay [11] and in assay [12] was “binds” in each case. Further, the binding result in assay [13], in [14], in [15], in assay [16], in assay [17] and in [18] was “binds” each time. Besides, the binding result in [19] is listed as “binds”; in assay [20] it was “binds”; in [21] it was “binds”; in assay [22] it was “binds”; in [23], “no binding”; in assay [24], “no binding”.
